Assay [1] concerns the target T1, fusion protein DBD-mdm2 (GAL4 DBD fused to the entire Mdm2 human protein) (Saccharomyces cerevisiae; human, UniProt P04386 1-147; Q00987 1-491, limits assumed).
T1 construct: also called pDBT-mdm2
The experiment in a line: yeast two-hybrid control (pTAL20+pDBT-mdm2), URA3 reporter in strain Y187.
Description: (§1) The activity of the constructs is first verified (FIGS. 6A and 6F). […] Two clones of each of these transformants are cultured on minimum medium with and without uracil ((FIGS. 6A and 6F).

Assay [2] addresses T2, DNA-binding domain (DBD) of GAL4p expressed alone from pDBT (Saccharomyces cerevisiae, UniProt P04386 1-147, limits assumed).
T2 construct: Negative control partner
The experiment in a line: reverse two-hybrid UI strain yRB49; growth not affected on medium with 1 mM 3-AT.

Assay [3] has as its target T2, DNA-binding domain (DBD) of GAL4p …. The experiment in a line: yeast two-hybrid control (pRB34+pDBT), URA3 reporter in strain Y187.
Description: as §1
Firstly, the activity of the constructs was verified. […] Two clones cotransformed by each of these pairs of plasmids are selected. Their capacity to grow on minimum medium with and without uracil is studied.

B1: activation domain (AD) of GAL4p expressed alone from pTAL20 (other, Saccharomyces cerevisiae, UniProt P04386 768-881, looked up)
chain: ANFNQSGNIADSSLSFTFTNSSNGPNLITTQTNSQALSQPIASSNVHDNFMNNEITASKIDDGNNSKPLSPGWTDQTAYNAFGITTGMFNTTTMDDVYNYLFDDEDTPPNPKKE
notes: Negative control partner
B1: the binding result in assay [1] and in assay [2] was “no binding” each time.

B2: fusion protein AD-Fe65 (GAL4 activation domain fused to amino acids 152 to 708 of Fe65) (other)
chain: MDKAELIPEPPKKKRKVELGTAANFNQSGNIADSSLSFTFTNSSNGPNLITTQTNSQALSQPIASSNVHDNFMNNEITASKIDDGNNSKPLSPGWTDQTAYNAFGITTGMFNTTTMDDVYNYLFDDEDTPPNPKKEIEFKAAGEAEEEEEDDDDEEEEEDLSSPPGLPEPLESVEAPPRPQALTDGPREHSKSASLLFGMRNSAASDEDSSWATLSQGSPSYGSPEDTDSFWNPNAFETDSDLPAGWMRVQDTSGTYYWHIPTGTTQWEPPGRASPSQGSSPQEESQLTWTGFAHGEGFEDGEFWKDEPSDEAPMELGLKEPEEGTLTFPAQSLSPEPLPQEEEKLPPRNTNPGIKCFAVRSLGWVEMTEEELAPGRSSVAVNNCIRQLSYHKNNLHDPMSGGWGEGKDLLLQLEDETLKLVEPQSQALLHAQPIISIRVWGVGRDSGRDFAYVARDKLTQMLKCHVFRCEAPAKNIATSLHEICSKIMAERRNARCLVNGLSLDHSKLVDVPFQVEFPAPKNELVQKFQVYYLGNVPVAKPVGVDVINGALESVLSSSSREQWTPSHVSVAPATLTILHQQTEAVLGECRVRFLSFLAVGRDVHTFAFIMAAGPASFCCHMFWCEPNAASLSEAVQAACMLRYQKCLDARSQASTSCLPAPPAESVARRVGWTVRRGVQSLWGSLKPKRLGAHTP
notes: also called pRB34
Turning to B2, the binding result in assay [3] is reported as “no binding”.

The values above are taken from patent US20090005253A1 (AVENTIS PHARMA S A, published 2009).
